Experimental data: patent publication US20250042994A1 (HAINAN SIMCERE ZAIMING PHARMACEUTICAL, published 2025)

T1: human CD19 exon1-3-His tag protein (human, UniProt P15391 20-186, limits assumed)
T1 construct: membrane-distal part of the extracellular region, made in HEK293E cells; not shown: His tag
T1 sequence (looked up): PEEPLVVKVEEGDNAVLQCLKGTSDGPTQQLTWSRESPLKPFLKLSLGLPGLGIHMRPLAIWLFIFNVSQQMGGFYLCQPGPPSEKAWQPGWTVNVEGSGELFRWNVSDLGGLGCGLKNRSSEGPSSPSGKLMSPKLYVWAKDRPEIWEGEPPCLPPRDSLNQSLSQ

T2: Human CD19-his protein (human, UniProt P15391 20-291)
T2 construct: bought protein; also called recombinant human CD19-His; CD19 full-length protein; not shown: His tag
T2 sequence (looked up): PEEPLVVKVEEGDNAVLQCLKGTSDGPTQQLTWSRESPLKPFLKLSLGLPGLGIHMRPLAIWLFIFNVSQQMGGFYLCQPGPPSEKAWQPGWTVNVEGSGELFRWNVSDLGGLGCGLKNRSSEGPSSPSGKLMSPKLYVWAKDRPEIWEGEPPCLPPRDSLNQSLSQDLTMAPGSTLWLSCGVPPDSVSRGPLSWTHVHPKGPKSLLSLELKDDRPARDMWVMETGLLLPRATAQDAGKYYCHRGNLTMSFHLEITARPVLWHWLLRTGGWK

T3: murine CD19 protein (murine, UniProt P25918 17-287, limits assumed)
T3 construct: bought protein; also called commercial murine CD19
T3 sequence (looked up): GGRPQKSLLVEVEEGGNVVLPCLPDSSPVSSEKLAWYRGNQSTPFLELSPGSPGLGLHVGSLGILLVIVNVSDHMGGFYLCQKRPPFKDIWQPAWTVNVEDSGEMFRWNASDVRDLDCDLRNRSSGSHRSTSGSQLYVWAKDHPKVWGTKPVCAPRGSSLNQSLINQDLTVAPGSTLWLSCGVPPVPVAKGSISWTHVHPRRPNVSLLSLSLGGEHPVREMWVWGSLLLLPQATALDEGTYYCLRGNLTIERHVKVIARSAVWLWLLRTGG

T4: Human CD19-his protein (human, UniProt P15391 20-291)
T4 construct: bought protein; also called human CD19 protein; recombinant human CD19-His; not shown: His tag
T4 sequence (looked up): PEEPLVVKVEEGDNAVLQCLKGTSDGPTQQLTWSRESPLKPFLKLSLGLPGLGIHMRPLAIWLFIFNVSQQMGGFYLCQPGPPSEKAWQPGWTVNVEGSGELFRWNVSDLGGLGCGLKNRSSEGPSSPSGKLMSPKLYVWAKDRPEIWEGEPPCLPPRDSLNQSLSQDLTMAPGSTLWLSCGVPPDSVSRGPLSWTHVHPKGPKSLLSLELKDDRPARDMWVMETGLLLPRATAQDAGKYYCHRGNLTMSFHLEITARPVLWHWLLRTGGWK


Columns and labels:
[1] = biological target: T1, human CD19 exon1-3-His tag protein; experiment: ELISA on coated human CD19 exon 1-3-His
Human CD19-his protein [2] = biological target: T2, Human CD19-his protein; experiment: SPR Biacore, Ab captured on Protein A, CD19-His analyte
Procedure, shortened: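 Apparent KD came from a Langmuir 1:1 fit of double-referenced sensorgrams. Recombinant human CD19-His analyte (top 200 nM, 1:1 serial dilution, 5 concentrations) flowed over Protein A-captured antibody for 240 s at 30 μl/min, then buffer for up to 600 s. Running buffer HBS-EP+ at 25 °C; regeneration with 10 mM glycine pH 1.5.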

murine CD19 protein = biological target: T3, murine CD19 protein; experiment: ELISA, coated murine CD19
Method: (§1) Human CD19-his protein (purchased from ACROBiosystems, catalog number: CD9-H52H2) was diluted with PBS to a final concentration of 4 μg/mL, and then added to a 96-well ELISA plate at 100 μl/well. The plate was sealed with a plastic film and incubated overnight at 4° C., the plate was washed 2 times with PBS the next day, and then a blocking solution [PBS+2% (w/w) BSA] was added for blocking at room temperature for 2 h. The blocking solution was poured off, and 100 nM gradiently diluted CD19 chimeric antibody or control antibody was added at 50 μl/well. After incubation at 37° C. for 2 h, the plate was washed 3 times with PBS. […] TMB substrate was added at 50 μl/well, and incubated at room temperature for 10 min, and then a stop solution (1.0 N HCl) was added at 50 μl/well. The OD450 nm values were read by an ELISA microplate reader (Multimode Plate Reader, EnSight, purchased from Perkin Elmer).
In order to detect the species cross-binding activity of the chimeric antibodies, an ELISA plate was coated with commercial murine CD19 (ACROBiosystems, catalog number: 50510-M08H) and monkey CD19 (ACROBiosystems, catalog number: 90051-C08H), respectively, and the ELISA detection was performed according to the method in example 5.1.

Human CD19-his protein [3] = biological target: T4, Human CD19-his protein; experiment: ELISA, antibody at 10 nM
Method: as §1

Human CD19-his protein [4] = biological target: T4, Human CD19-his protein; experiment: ELISA, antibody at 100 nM
Method: as §1

Human CD19-his protein [5] = biological target: T4, Human CD19-his protein; experiment: ELISA, antibody at 0.01 nM
Method: as §1

Human CD19-his protein [6] = biological target: T4, Human CD19-his protein; experiment: ELISA, antibody at 0.10 nM
Method: as §1

Human CD19-his protein [7] = biological target: T4, Human CD19-his protein; experiment: ELISA, antibody at 1.00 nM
Method: as §1

Human CD19-his protein [8] = biological target: T4, Human CD19-his protein; experiment: ELISA, antibody at 0.001 nM
Method: as §1

Human CD19-his protein [9] = biological target: T4, Human CD19-his protein; experiment: ELISA, antibody at 0.0001 nM
Method: as §1

Human CD19-his protein [10] = biological target: T4, Human CD19-his protein; experiment: ELISA on coated human CD19-His
Method: as §1

binding result [1] | Kd (Human CD19-his protein [2]) | koff (Human CD19-his protein [2]) | kon (Human CD19-his protein [2]) | binding result (murine CD19 protein) | OD450 (Human CD19-his protein [3]) | OD450 (Human CD19-his protein [4]) | OD450 (Human CD19-his protein [5]) | OD450 (Human CD19-his protein [6]) | OD450 (Human CD19-his protein [7]) | OD450 (Human CD19-his protein [8]) | OD450 (Human CD19-his protein [9]) | EC50 (read off the curve) (Human CD19-his protein [10]) | Binder
no binding (tested: 100 nM) | 1180 pM | 0.000225 s⁻¹ | 192000 M⁻¹ s⁻¹ | – | – | – | – | – | – | – | – | – | F5.7.1 (antibody, human IgG1, V domains shown, human-murine chimeric antibody, human IgG1 constant) VH: QVTLKESGPGILQPSQTLSLTCSFSGFSLTTFGMGVGWIRQPSGKGLEWLTHIWWDDDKYYNPALKSRLTISKDTSKNQVFLRIANVDTADTATYYCARVITTGVPYFDYWGQGTTLTVSS VL: ENVLTQSPAIMSASPGEKVTMTCRASSSVSSSYLYWYQQKSGASPKLWISSTSNLASGVPARFSGSGSGTSYSLTINSVEAEDAATYYCQQYSGYPWTFGGGTKLEIK
– | – | – | – | no binding | 2.64 | 2.96 | 0.21 | 1.02 | 2.32 | 0.07 | 0.05 | ~200 pM | F3.74.4 (antibody, human IgG1, V domains shown, human-murine chimeric antibody, human IgG1) VH: QVQLQQSGAELVRPGASVTLSCKASGYTFTDYEMHWVKQTPVHGLEWIGGIAPETGLTTYNQKFEDKAILTADKSSRTAYMELRSLTSEDSAVYFCNPNNYGLWGTGTTVTVSS VL: not shown
– | – | – | – | no binding | 2.98 | 2.94 | 0.3 | 1.33 | 2.69 | 0.08 | 0.05 | ~100 pM | F3.77.6 (antibody, human IgG1, V domains shown, human-murine chimeric antibody, human IgG1) VH: EFQLQQSGPELVKPGASVKISCKASGYSFTDYNMNWVKQSNGKSLEWIGTINPNYITSYNQKFKGKATLTVDQSSSTAYMQLNSLTSEDSAVYYCAGDYKGYWGQGTTLTVSS VL: not shown
no binding (tested: 100 nM) | 22700 pM | 0.000774 s⁻¹ | 34100 M⁻¹ s⁻¹ | – | – | – | – | – | – | – | – | – | F4.82.11 (antibody, human IgG1, V domains shown, human-murine chimeric antibody, human IgG1 constant) VH: QVTLKESGPGILQASQTLSLTCSFSGFSLSTFGIGVGWVRQPSGKGLEWLAHIWWNDNKFFNTTLKNRLTLSKDPSNNQVFLKIASVDTADTATYYCARSRSALITTGLYAMDYWGQGTSVTVSS VL: DIQMTQTPSSLSASLGDRVTISCRSSQDISNYVNWYQQKPDGTVKVLINYTSRLHSGVPSRFSGSGSGTDYSLTISNLEQEDIASYFCQQGFTLPYTFGGGTKLEIK
